± gives the standard deviation of the averaged measurements.
Test: total protein half-life in vivo (active degradation + dilution); higher = more stable protein
[1] = E. coli NCM3722 delta-smpB, growth: N-lim chemostat, doubling time 6 h
[2] = wild type E. coli NCM3722, growth: C-lim chemostat, doubling time 3 h
[3] = wild type E. coli NCM3722, growth: C-lim chemostat, doubling time 6 h
[4] = wild type E. coli NCM3722, growth: C-lim chemostat, doubling time 12 h
[5] = wild type E. coli NCM3722, growth: P-lim chemostat, doubling time 6 h
[6] = wild type E. coli NCM3722, growth: P-lim chemostat, doubling time 12 h
[7] = E. coli NCM3722 delta-clpP delta-lon delta-hslV, growth: N-lim chemostat, doubling time 6 h
[8] = E. coli NCM3722 delta-clpP, growth: N-lim chemostat, doubling time 6 h
[9] = E. coli NCM3722 delta-hslV, growth: N-lim chemostat, doubling time 6 h
[10] = E. coli NCM3722 delta-lon, growth: N-lim chemostat, doubling time 6 h
[11] = wild type E. coli NCM3722, growth: N-lim chemostat, doubling time 6 h
[12] = wild type E. coli NCM3722, growth: N-lim chemostat, doubling time 12 h

Row | Sequence | total protein half-life in vivo [1] [h] | total protein half-life in vivo [2] [h] | total protein half-life in vivo [3] [h] | total protein half-life in vivo [4] [h] | total protein half-life in vivo [5] [h] | total protein half-life in vivo [6] [h] | total protein half-life in vivo [7] [h] | total protein half-life in vivo [8] [h] | total protein half-life in vivo [9] [h] | total protein half-life in vivo [10] [h] | total protein half-life in vivo [11] [h] | total protein half-life in vivo [12] [h]
1 | MSKSNPSEVKLAVPTSGGFSGLKSLNLQVFVMIAAIIAIMLFFTWTTDGAYLSARNVSNLLRQTAITGILAVGMVFVIISAEIDLSVGSMMGLLGGVAAICDVWLGWPLPLTIIVTLVLGLLLGAWNGWWVAYRKVPSFIVTLAGMLAFRGILIGITNGTTVSPTSAAMSQIGQSYLPASTGFIIGALGLMAFVGWQWRGRMRRQALGLQSPASTAVVGRQALTAIIVLGAIWLLNDYRGVPTPVLLLTLLLLGGMFMATRTAFGRRIYAIGGNLEAARLSGINVERTKLAVFAINGLMVAIAGLILSSRLGAGSPSAGNIAELDAIAACVIGGTSLAGGVGSVAGAVMGAFIMASLDNGMSMMDVPTFWQYIVKGAILLLAVWMDSATKRRS [P0AGI4] | 4.37 ± 0.55 | 3.44 ± 0.11 | 5.06 ± 1.1 | 9.1 ± 0.54 | 4.71 ± 0.42 | 8.47 | – | – | – | – | – | –
2 | MSKTIATENAPAAIGPYVQGVDLGNMIITSGQIPVNPKTGEVPADVAAQARQSLDNVKAIVEAAGLKVGDIVKTTVFVKDLNDFATVNATYEAFFTEHNATFPARSCVEVARLPKDVKIEIEAIAVRR [P0AF93] | 5.15 ± 0.68 | 3.16 ± 0.28 | 5.56 ± 0.15 | 10.8 ± 1.1 | 5.694 ± 0.0093 | 12.8 ± 0.61 | 6.26 ± 0.82 | 5.12 ± 0.65 | 5.28 ± 0.082 | 5.91 ± 0.21 | 4.88 ± 0.16 | 8.99 ± 0.37
3 | MSLAKASLWTAASTLVKIGAGLLVGKLLAVSFGPAGLGLAANFRQLITVLGVLAGAGIFNGVTKYVAQYHDNPQQLRRVVGTSSAMVLGFSTLMALVFVLAAAPISQGLFGNTDYQGLVRLVALVQMGIAWGNLLLALMKGFRDAAGNALSLIVGSLIGVLAYYVSYRLGGYEGALLGLALIPALVVIPAAIMLIKRGVIPLSYLKPSWDNGLAGQLSKFTLMALITSVTLPVAYIMMRKLLAAQYSWDEVGIWQGVSSISDAYLQFITASFSVYLLPTLSRLTEKRDITREVVKSLKFVLPAVAAASFTVWLLRDFAIWLLLSNKFTAMRDLFAWQLVGDVLKVGAYVFGYLVIAKASLRFYILAEVSQFTLLMVFAHWLIPAHGALGAAQAYMATYIVYFSLCCGVFLLWRRRA [P0AAA7] | – | – | – | – | 5.48 | – | – | – | – | – | – | –
4 | MSLDINQIALHQLIKRDEQNLELVLRDSLLEPTETVVEMVAELHRVYSAKNKAYGLFSEESELAQTLRLQRQGEEDFLAFSRAATGRLRDELAKYPFADGGFVLFCHYRYLAVEYLLVAVLSNLSSMRVNENLDINPTHYLDINHADIVARIDLTEWETNPESTRYLTFLKGRVGRKVADFFMDFLGASEGLNAKAQNRGLLQAVDDFTAEAQLDKAERQNVRQQVYSYCNEQLQAGEEIELKSLSKELAGVSEVSFTEFAAEKGYELEESFPADRSTLRQLTKFAGSGGGLTINFDAMLLGERIFWDPATDTLTIKGTPPNLRDQLQRRTSGGN | 5.911 ± 0.055 | 3.22 ± 0.17 | 6.07 ± 0.17 | 10.4 ± 2.2 | 6.08 ± 0.094 | 12.7 ± 0.4 | 6.4 ± 0.28 | 6.91 ± 0.46 | 5.81 ± 0.19 | 5.78 ± 0.17 | 6.08 ± 0.28 | 12 ± 2.2
5 | MSLHSPGKAFRAALTKENPLQIVGTINANHALLAQRAGYQAIYLSGGGVAAGSLGLPDLGISTLDDVLTDIRRITDVCSLPLLVDADIGFGSSAFNVARTVKSMIKAGAAGLHIEDQVGAKRCGHRPNKAIVSKEEMVDRIRAAVDAKTDPDFVIMARTDALAVEGLDAAIERAQAYVEAGAEMLFPEAITELAMYRQFADAVQVPILANITEFGATPLFTTDELRSAHVAMALYPLSAFRAMNRAAEHVYNVLRQEGTQKSVIDTMQTRNELYESINYYQYEEKLDNLFARSQVK | – | – | 4.13 ± 0.31 | 5.82 ± 0.58 | – | – | 3.59 ± 0.66 | – | – | – | 4.7 | –
6 | MSLISMHGAWLSFSDAPLLDNAELHIEDNERVCLVGRNGAGKSTLMKILNREQGLDDGRIIYEQDLIVARLQQDPPRNVEGSVYDFVAEGIEEQAEYLKRYHDISRLVMNDPSEKNLNELAKVQEQLDHHNLWQLENRINEVLAQLGLDPNVALSSLSGGWLRKAALGRALVSNPRVLLLDEPTNHLDIETIDWLEGFLKTFNGTIIFISHDRSFIRNMATRIVDLDRGKLVTYPGNYDQYLLEKEEALRVEELQNAEFDRKLAQEEVWIRQGIKARRTRNEGRVRALKAMRRERGERREVMGTAKMQVEEASRSGKIVFEMEDVCYQVNGKQLVKDFSAQVLRGDKIALIGPNGCGKTTLLKLMLGQLQADSGRIHVGTKLEVAYFDQHRAELDPDKTVMDNLAEGKQEVMVNGKPRHVLGYLQDFLFHPKRAMTPVRALSGGERNRLLLARLFLKPSNLLILDEPTNDLDVETLELLEELIDSYQGTVLLVSHDRQFVDNTVTECWIFEGGGKIGRYVGGYHDARGQQEQYVALKQPAVKKTEEAAAAKAETVKRSSSKLSYKLQRELEQLPQLLEDLEAKLEALQTQVADASFFSQPHEQTQKVLADMAAAEQELEQAFERWEYLEALKNGG | 4.38 ± 0.62 | 3.41 ± 0.18 | 5.82 ± 0.35 | 10.4 ± 1.5 | 5.42 ± 0.33 | 9.51 ± 0.35 | 4.79 ± 0.63 | 5.1 ± 0.79 | 4.73 ± 0.16 | 4.8 ± 0.17 | 4.37 ± 0.087 | 7.15 ± 0.13
7 | MSLKEKTQSLFANAFGYPATHTIQAPGRVNLIGEHTDYNDGFVLPCAIDYQTVISCAPRDDRKVRVMAADYENQLDEFSLDAPIVAHENYQWANYVRGVVKHLQLRNNSFGGVDMVISGNVPQGAGLSSSASLEVAVGTVLQQLYHLPLDGAQIALNGQEAENQFVGCNCGIMDQLISALGKKDHALLIDCRSLGTKAVSMPKGVAVVIINSNFKRTLVGSEYNTRREQCETGARFFQQPALRDVTIEEFNAVAHELDPIVAKRVRHILTENARTVEAASALEQGDLKRMGELMAESHASMRDDFEITVPQIDTLVEIVKAVIGDKGGVRMTGGGFGGCIVALIPEELVPAVQQAVAEQYEAKTGIKETFYVCKPSQGAGQC [P0A6T3] | 4.573 ± 0.04 | 3.22 ± 0.53 | 5.71 ± 0.33 | 12.7 ± 2 | 6.11 ± 0.1 | 11.9 ± 0.71 | 5.59 ± 2 | 6.35 | 5.09 ± 1.2 | 5.29 ± 0.75 | 4.53 ± 0.13 | 7.14 ± 0.81

Reference: the supplement of paper PMC11246515
